{
  "source": "patent US20170114130A1",
  "about": "(University of California, published 2017)",
  "molecules": {"B1": {"name": "recombinant IL-2Rα, biotin labeled (receptor, UniProt P01589 22-240, looked up)", "chain": "ELCDDDPPEIPHATFKAMAYKEGTMLNCECKRGFRRIKSGSLYMLCTGNSSHSSWDNQCQCTSSATRNTTKQVTPQPEEQKERKTTEMQSPMQPVDQASLPGHCREPPPWENEATERIYHFVVGQMVYYQCVQGYRALHRGPAESVCKMTHGKTRWTQPQLICTGEMETSQFPGEEKPQASPEGRPESETSCLVTTTDFQIQTEMAATMETSIFTTEYQ", "modifications": "biotin labeled (site not stated)", "notes": "also called IL-2α; IL-2a"}, "B2": {"name": "recombinant IL-2Rβ, biotin labeled (receptor, UniProt P14784 27-240, looked up)", "chain": "AVNGTSQFTCFYNSRANISCVWSQDGALQDTSCQVHAWPDRRRWNQTCELLPVSQASWACNLILGAPDSQKLTTVDIVTLRVLCREGVRWRVMAIQDFKPFENLRLMAPISLQVVHVETHRCNISWEISQASHYFERHLEFEARTLSPGHTWEEAPLLTLKQKQEWICLETLTPDTQYEFQVRVKPLQGEFTTWSPWSQPLAFRTKPAALGKDT", "modifications": "biotin labeled (site not stated)", "notes": "also called CD122"}},
  "key": {"[1]": {"target": "human IL-2 (recombinant IL-2, Humanzyme) (human) (UniProt P60568)", "sequence (P60568 21-153 limits assumed)": "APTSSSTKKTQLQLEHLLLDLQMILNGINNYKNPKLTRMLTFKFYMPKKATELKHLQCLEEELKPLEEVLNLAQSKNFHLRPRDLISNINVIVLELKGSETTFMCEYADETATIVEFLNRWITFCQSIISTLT", "experiment": "SPR (Biacore T200), antibody captured on anti-mouse IgG, IL-2 injected; off-rate outside the specifications of the instrument, assumed limit"}, "[2]": {"target": "recombinant cynomolgus monkey (Macaca fascicularis) IL-2 (cynomolgus monkey (Macaca fascicularis)) (UniProt Q29615)", "sequence (Q29615 21-154 limits assumed)": "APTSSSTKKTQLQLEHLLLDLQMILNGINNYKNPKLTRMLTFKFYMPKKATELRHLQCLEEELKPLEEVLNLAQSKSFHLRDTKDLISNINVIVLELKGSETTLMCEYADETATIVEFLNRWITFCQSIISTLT", "experiment": "SPR as in Example 1, cynomolgus IL-2 1-100 nM, 1:1 Langmuir or steady-state fit"}, "[3]": {"target": "human IL-2 (recombinant IL-2, Humanzyme) (human) (UniProt P60568)", "experiment": "SPR, human IL-2; the value repeats Table 3 (assumed off-rate limit)"}, "[4]": {"target": "human IL-2 (recombinant IL-2, Humanzyme) (human) (UniProt P60568)", "experiment": "SPR (Biacore T200), antibody captured on anti-mouse IgG, IL-2 injected, 25 C, 1:1 Langmuir fit"}, "[5]": {"target": "human IL-2 (recombinant IL-2, Humanzyme) (human) (UniProt P60568)", "experiment": "SPR (Biacore T200), antibody captured on anti-mouse IgG, IL-2 injected; calculated with the assumed off-rate limit"}, "IL-2/F5.1.11 Fab complex": {"target": "T1, IL-2/F5.1.11 Fab complex (human, UniProt P60568 21-153)", "T1 construct": "also called F5.1.11/IL-2", "T1 sequence (VH, as listed by the source limits assumed, chain 1 of 3)": "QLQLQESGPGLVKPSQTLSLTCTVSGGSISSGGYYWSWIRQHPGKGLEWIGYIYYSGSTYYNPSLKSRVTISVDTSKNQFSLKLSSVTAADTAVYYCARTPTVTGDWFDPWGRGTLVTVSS", "T1 sequence (VL, as listed by the source limits assumed, chain 2 of 3)": "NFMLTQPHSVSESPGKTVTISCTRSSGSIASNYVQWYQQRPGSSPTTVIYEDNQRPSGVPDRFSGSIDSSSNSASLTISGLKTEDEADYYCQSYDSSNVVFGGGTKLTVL", "T1 sequence (P60568 21-153 limits assumed, chain 3 of 3)": "as the sequence (P60568 21-153 limits assumed) above", "experiment": "SPR (Biacore T200), 1-500 nM IL-2 pre-complexed with excess Fab over biotinylated IL-2Rα, equilibrium analysis", "protocol": "Experiments were performed at 25° C. using a 10 μL/minute flow rate in 10 mM HEPES (pH7.4), 150 mM NaCl and 0.005% v/v Surfactant P20 buffer. […] Data was background subtracted using the adjacent control flow cell and buffer only injections. The affinity of the interaction was calculated from concentration-response relationship at equilibrium."}, "d1C7/IL-2 complex": {"target": "T2, d1C7/IL-2 complex (human, UniProt P60568 21-153)", "T2 construct": "Non-covalent complex: IL-2 (333 nM) pre-incubated with d1C7 IgG (1000 nM) for at least 20 minutes; also called clone d1C7/IL-2 complex", "T2 sequence (VH, as listed by the source limits assumed, chain 1 of 3)": "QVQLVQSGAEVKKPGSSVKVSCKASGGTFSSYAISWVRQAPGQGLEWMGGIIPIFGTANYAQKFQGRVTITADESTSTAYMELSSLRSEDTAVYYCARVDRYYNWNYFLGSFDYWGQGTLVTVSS", "T2 sequence (VL, as listed by the source limits assumed, chain 2 of 3)": "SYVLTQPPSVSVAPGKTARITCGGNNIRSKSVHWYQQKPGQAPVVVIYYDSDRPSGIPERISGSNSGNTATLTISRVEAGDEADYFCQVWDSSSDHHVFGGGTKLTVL", "T2 sequence (P60568 21-153 limits assumed, chain 3 of 3)": "as the sequence (P60568 21-153 limits assumed) above", "experiment": "SPR (Biacore T200), complex injected over biotinylated receptor on streptavidin chip", "protocol": "Experiments were performed at 25° C. using a 10 μL/minute flow rate in 10 mM HEPES (pH 7.4), 150 mM NaCl and 0.005% v/v Surfactant P20 buffer. […] Data was background subtracted using the adjacent control flow cell and buffer only injections."}},
  "data": [
    {"molecule": "mouse anti-human IL-2 clone 5344 (clone 5344.111, BD Biosciences) (antibody)", "values": [
      {"measurement": "koff", "setting": "[1]", "value": "< 5e-05", "unit": "s⁻¹"},
      {"measurement": "Kd", "setting": "[2]", "value": "> 50", "unit": "nM"},
      {"measurement": "Kd", "setting": "[3]", "value": "< 0.05", "unit": "nM"},
      {"measurement": "kon", "setting": "[4]", "value": "1.02e+06", "unit": "M⁻¹ s⁻¹"},
      {"measurement": "Kd", "setting": "[5]", "value": "< 0.05", "unit": "nM"}
    ]},
    {"molecule": "B1", "values": [
      {"measurement": "Kd", "setting": "IL-2/F5.1.11 Fab complex", "value": 70.1, "unit": "nM"}
    ]},
    {"molecule": "B2", "values": [
      {"measurement": "binding result", "setting": "d1C7/IL-2 complex", "value": "no binding (tested: IL-2 333 nM with IgG 1000 nM)"}
    ]}
  ]
}
